Measurements taken from US20070190603A1 (MIT, published 2007).

Target: the molecule itself
Assay: self-assembly into a macroscopic membrane in DMEM; phase-contrast microscopy and Congo Red staining
Procedure: The peptides were initially dissolved in water (5 mg/ml) or in 23% acetonitrile (10 mg/ml). A volume of 5-10 microliters of the dissolved peptides were applied to the DMEM medium, PBS or water. The formation of the membrane was first observed under a phase-contrast microscope and then, by the naked eye after staining with Congo Red.

| Protein | binding result |
| --- | --- |
| Ac-AEAEAKAKAEAEAKAK-NH2 (Self-assembling amphiphilic peptide) [EAK16 peptide, Ac-HN-AEAEAKAKAEAEAKAK-CONH2] | binds |
| Ac-AEAKAEAEAKAK-NH2 [EAK12 peptide, Ac-HN-AEAKAEAEAKAK-CONH2] | binds |
